{
  "source": "the supplement of paper PMC10567573",
  "parents": {"B1": {"name": "SPOPL (parent)", "chain": "YTGRAPNLDKMADNLLAAADKYAL"}, "B2": {"name": "CDKL4 (parent)", "chain": "AVKKFVESEDDPVVKKIALREIRM"}},
  "data": [
    {"variants_of": "B1", "test": "protein stability index of a GFP-peptide fusion (GPS, HEK-293T) (PSI 1-6); higher = more stable", "details": "c terminus: a fixed tail appended", "values": [
      {"variant": "T2W", "protein stability index": 2.01},
      {"variant": "A23M", "protein stability index": 2.18},
      {"variant": "L16T", "protein stability index": 3.25},
      {"variant": "L15W", "protein stability index": 1.93},
      {"variant": "A17H", "protein stability index": 2.08},
      {"variant": "D9H", "protein stability index": 2.17},
      {"variant": "A5S", "protein stability index": 2.33},
      {"variant": "A18F", "protein stability index": 1.77},
      {"variant": "A19Y", "protein stability index": 2.11},
      {"variant": "D13M", "protein stability index": 2.12},
      {"variant": "N14G", "protein stability index": 2.05},
      {"variant": "N14M", "protein stability index": 2.37},
      {"variant": "N14Q", "protein stability index": 2.01}
    ]},
    {"variants_of": "B2", "test": "protein stability index of a GFP-peptide fusion (GPS, HEK-293T) (PSI 1-6); higher = more stable", "details": "c terminus: a fixed tail appended", "values": [
      {"variant": "L19Y", "protein stability index": 3.41},
      {"variant": "L19D", "protein stability index": 3.97},
      {"variant": "L19F", "protein stability index": 2.09},
      {"variant": "L19W", "protein stability index": 3.15},
      {"variant": "L19N", "protein stability index": 3.86},
      {"variant": "L19H", "protein stability index": 3.76},
      {"variant": "L19E", "protein stability index": 4.76},
      {"variant": "L19G", "protein stability index": 4.26},
      {"variant": "L19S", "protein stability index": 4.41},
      {"variant": "L19I", "protein stability index": 3.03},
      {"variant": "L19V", "protein stability index": 3.47},
      {"variant": "L19A", "protein stability index": 3.87},
      {"variant": "L19P", "protein stability index": 4.24},
      {"variant": "L19M", "protein stability index": 3.16},
      {"variant": "L19T", "protein stability index": 4.34},
      {"variant": "L19K", "protein stability index": 3.67},
      {"variant": "L19C", "protein stability index": 4.26},
      {"variant": "L19R", "protein stability index": 2.96},
      {"variant": "L19Q", "protein stability index": 4.22},
      {"variant": "K16S", "protein stability index": 3.23},
      {"variant": "K16W", "protein stability index": 2.05},
      {"variant": "K16T", "protein stability index": 3.11},
      {"variant": "K16V", "protein stability index": 2.27},
      {"variant": "K16Y", "protein stability index": 2.44},
      {"variant": "I22T", "protein stability index": 4.01},
      {"variant": "I22Y", "protein stability index": 3.35},
      {"variant": "I22R", "protein stability index": 4.03},
      {"variant": "I22N", "protein stability index": 4.22},
      {"variant": "I22A", "protein stability index": 3.82},
      {"variant": "I22L", "protein stability index": 3.11},
      {"variant": "I22C", "protein stability index": 3.32},
      {"variant": "I22K", "protein stability index": 4.29},
      {"variant": "I22V", "protein stability index": 2.57},
      {"variant": "I22W", "protein stability index": 2.92},
      {"variant": "I22M", "protein stability index": 3.29},
      {"variant": "I22G", "protein stability index": 3.66},
      {"variant": "I22P", "protein stability index": 4.54},
      {"variant": "I22H", "protein stability index": 4.06},
      {"variant": "I22D", "protein stability index": 4},
      {"variant": "I22E", "protein stability index": 4.04},
      {"variant": "I22Q", "protein stability index": 3.62},
      {"variant": "I22F", "protein stability index": 2.18},
      {"variant": "I22S", "protein stability index": 3.97},
      {"variant": "I17P", "protein stability index": 3.53},
      {"variant": "I17M", "protein stability index": 2.87},
      {"variant": "I17W", "protein stability index": 2.15},
      {"variant": "I17S", "protein stability index": 4.28},
      {"variant": "I17L", "protein stability index": 2.57},
      {"variant": "I17C", "protein stability index": 3.32},
      {"variant": "I17F", "protein stability index": 2.79},
      {"variant": "I17Y", "protein stability index": 2.85},
      {"variant": "I17K", "protein stability index": 3.87},
      {"variant": "I17G", "protein stability index": 3.08},
      {"variant": "I17T", "protein stability index": 4.48},
      {"variant": "I17H", "protein stability index": 3.33},
      {"variant": "I17R", "protein stability index": 3.45},
      {"variant": "I17A", "protein stability index": 3.95},
      {"variant": "I17D", "protein stability index": 4.36},
      {"variant": "I17V", "protein stability index": 3.22},
      {"variant": "I17E", "protein stability index": 3.93},
      {"variant": "I17Q", "protein stability index": 3.46},
      {"variant": "I17N", "protein stability index": 3.7},
      {"variant": "R20H", "protein stability index": 2.63},
      {"variant": "R20W", "protein stability index": 2.43},
      {"variant": "R20S", "protein stability index": 3.19},
      {"variant": "R20T", "protein stability index": 2.88},
      {"variant": "R20F", "protein stability index": 1.5},
      {"variant": "R20A", "protein stability index": 3.21},
      {"variant": "R20L", "protein stability index": 2.44},
      {"variant": "R20M", "protein stability index": 2.13},
      {"variant": "R20N", "protein stability index": 3.74},
      {"variant": "R20Y", "protein stability index": 2.25},
      {"variant": "R20G", "protein stability index": 3.03},
      {"variant": "R20D", "protein stability index": 3.56},
      {"variant": "R20I", "protein stability index": 1.39},
      {"variant": "R20P", "protein stability index": 2.87},
      {"variant": "R20C", "protein stability index": 2.92},
      {"variant": "R20Q", "protein stability index": 3.49},
      {"variant": "R20E", "protein stability index": 3.74},
      {"variant": "R20K", "protein stability index": 3.67},
      {"variant": "R20V", "protein stability index": 1.46},
      {"variant": "R23H", "protein stability index": 3.14},
      {"variant": "R23I", "protein stability index": 1.71},
      {"variant": "R23L", "protein stability index": 1.45},
      {"variant": "R23Y", "protein stability index": 2.27},
      {"variant": "R23C", "protein stability index": 2.78},
      {"variant": "R23N", "protein stability index": 4.2},
      {"variant": "R23D", "protein stability index": 3.95},
      {"variant": "R23V", "protein stability index": 1.44},
      {"variant": "R23G", "protein stability index": 3.16},
      {"variant": "R23T", "protein stability index": 2.74},
      {"variant": "R23Q", "protein stability index": 3.29},
      {"variant": "R23F", "protein stability index": 1.93},
      {"variant": "R23S", "protein stability index": 2.75},
      {"variant": "R23A", "protein stability index": 2.03},
      {"variant": "R23P", "protein stability index": 3.67},
      {"variant": "R23E", "protein stability index": 4.24},
      {"variant": "R23W", "protein stability index": 2.03},
      {"variant": "R23K", "protein stability index": 3.29},
      {"variant": "A18F", "protein stability index": 1.76},
      {"variant": "A18Y", "protein stability index": 2.69},
      {"variant": "A18R", "protein stability index": 2.76},
      {"variant": "A18E", "protein stability index": 3.37},
      {"variant": "A18N", "protein stability index": 3.35},
      {"variant": "A18K", "protein stability index": 3.03},
      {"variant": "A18Q", "protein stability index": 3.79},
      {"variant": "A18P", "protein stability index": 3.57},
      {"variant": "A18H", "protein stability index": 2.79},
      {"variant": "A18M", "protein stability index": 1.94},
      {"variant": "A18S", "protein stability index": 3.4},
      {"variant": "A18T", "protein stability index": 3.45},
      {"variant": "A18I", "protein stability index": 2.21},
      {"variant": "A18C", "protein stability index": 2.25},
      {"variant": "A18V", "protein stability index": 2.6},
      {"variant": "A18G", "protein stability index": 3.65},
      {"variant": "A18D", "protein stability index": 3.84},
      {"variant": "A18L", "protein stability index": 2.29},
      {"variant": "A18W", "protein stability index": 2.43},
      {"variant": "M24C", "protein stability index": 2.76},
      {"variant": "M24P", "protein stability index": 3.43},
      {"variant": "M24N", "protein stability index": 2.95},
      {"variant": "M24H", "protein stability index": 3.59},
      {"variant": "M24G", "protein stability index": 3.07},
      {"variant": "M24E", "protein stability index": 3.41},
      {"variant": "M24R", "protein stability index": 3.23},
      {"variant": "M24W", "protein stability index": 2.48},
      {"variant": "M24D", "protein stability index": 3.73},
      {"variant": "M24F", "protein stability index": 2.6},
      {"variant": "M24S", "protein stability index": 3.71},
      {"variant": "M24K", "protein stability index": 3.11},
      {"variant": "M24I", "protein stability index": 2.97},
      {"variant": "M24L", "protein stability index": 2.74},
      {"variant": "M24Y", "protein stability index": 3.86},
      {"variant": "M24T", "protein stability index": 3.15},
      {"variant": "M24V", "protein stability index": 3.36},
      {"variant": "M24Q", "protein stability index": 3.92},
      {"variant": "E21T", "protein stability index": 2.4},
      {"variant": "E21N", "protein stability index": 2.96},
      {"variant": "E21V", "protein stability index": 2.46},
      {"variant": "E21Q", "protein stability index": 2.45},
      {"variant": "E21G", "protein stability index": 3.24},
      {"variant": "E21H", "protein stability index": 2.95},
      {"variant": "E21M", "protein stability index": 1.46},
      {"variant": "E21Y", "protein stability index": 2.69},
      {"variant": "E21C", "protein stability index": 2.37},
      {"variant": "E21K", "protein stability index": 2.48},
      {"variant": "E21P", "protein stability index": 2.57},
      {"variant": "E21W", "protein stability index": 3.91},
      {"variant": "E21R", "protein stability index": 3.02},
      {"variant": "E21L", "protein stability index": 2.69},
      {"variant": "E21A", "protein stability index": 2.42},
      {"variant": "E21S", "protein stability index": 2.35},
      {"variant": "E21F", "protein stability index": 1.7},
      {"variant": "E21I", "protein stability index": 2.99}
    ]}
  ]
}
